Data as given in patent publication US20240207418A1, “LINKERS, DRUG LINKERS AND CONJUGATES THEREOF AND METHODS OF USING THE SAME” (ProfoundBio US Co., priority 2021, published 2024).

How the values were obtained:
cynomolgus FOLR1 protein = experiment: ELISA cross binding to cynomolgus FOLR1 protein
Method: (§1) The ability of the antibodies to bind to human FOLR1 protein or to cross binding to cynomolgus FOLR1 protein was tested by standard ELISA. Briefly, the human FOLR1 (ACRO-FO1-H52H1) or cynomolgus FOLR1 protein (ACRO, F01-C52H8) with a His tag was diluted to 5 μg/ml with a carbonic acid coating solution at pH 9.6 and 100 μL antigen was coated in each well of 96-well microtiter plate at 4° C. overnight. The liquid in the wells was discarded and the wells were washed three times with PBST. The wells were then blocked with 4% skim milk powder-PBS (Sigma, D5652-1 L), using 300 μL/well and the plates incubated in 37° C. for 1 hour. The liquid in the wells was discarded, and the well were washed three times with PBS. Samples were added using 100 μL/well; PBS was added in the control group. The plates were incubated at 37° C. for 1 hour. The liquid in the wells was discarded and the wells were washed three times with PBST. HRP-goat anti-human IgG (Sigma, 118885-2ML) was added (with 1:5000 dilution, 100 μL/well) and the plates were incubated in 37° C. for 1 hour. Then the liquid in the wells was discarded, and the wells were washed five times with PBST. A TMB solution was added using 100 μL/well. 2M H2SO4 was added to each well using 50 μL to terminate the reaction after […]. The A450 values were read using a microplate reader.

human FOLR1 protein = target: T1, human FOLR1 protein (Homo sapiens, UniProt P15328); experiment: ELISA binding to human FOLR1 protein
T1 construct: His tag; purchased ACRO FO1-H52H1
Method: as §1

T1 sequence (P15328 25-234): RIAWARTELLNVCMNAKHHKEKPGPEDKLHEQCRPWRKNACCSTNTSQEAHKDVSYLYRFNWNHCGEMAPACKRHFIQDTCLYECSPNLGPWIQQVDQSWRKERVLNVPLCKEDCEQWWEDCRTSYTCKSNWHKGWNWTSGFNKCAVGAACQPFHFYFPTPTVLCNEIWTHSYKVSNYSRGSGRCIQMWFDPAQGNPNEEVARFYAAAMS

OD450, Target: Cynomolgus/Rhesus macaque FOLR1, Protein, His Tag, Diluted 1x (cynomolgus FOLR1 protein; supernatant diluted 1x): 1.354 OD450
OD450, Target: Cynomolgus/Rhesus macaque FOLR1, Protein, His Tag, Diluted 5x (cynomolgus FOLR1 protein; supernatant diluted 5x): 1.111 OD450
OD450, Target: Cynomolgus/Rhesus macaque FOLR1, Protein, His Tag, Diluted 25x (cynomolgus FOLR1 protein; supernatant diluted 25x): 0.924 OD450
OD450, Target: Human FOLR1 Protein His Tag, Diluted 1x (human FOLR1 protein; supernatant diluted 1x): 0.811 OD450
OD450, Target: Human FOLR1 Protein His Tag, Diluted 5x (human FOLR1 protein; supernatant diluted 5x): 0.382 OD450
OD450, Target: Human FOLR1 Protein His Tag, Diluted 25x (human FOLR1 protein; supernatant diluted 25x): 0.163 OD450
Target binding, coating with Human FOLR1 Protein (human FOLR1 protein; transfection supernatant, ELISA): 2.3860 OD450
B1: F40: anti-FOLR1 antibody clone: "Clone F40 has a different HCDRs and LCDRs, and with different HFR and LFR" (antibody, V domains shown)
VH: EVQLLESGGGVVQPGRSLRLSCAASGFTFSSYAMHWVRQAPGKGLEWVAVISYDGSNKYYADSVKGRFIISRDNSKNTVYLQMNSLRAEDTAVYYCARPTYVFTYTGSSFDYWGQGTQVTVSS
VL: DIQVTQSPSSLSASLGDTVSITCRASRGLTDSVAWYQQKPGQAPKLLIYAASTLQSGVPSRFGGSGSGSYFTLTITSLQPEDVATYYCQNYKSAPWTFGQGTKVEIK
